We go through two molecules from patent US20110014218A1 (UNIVERSITY OF NORTH CAROLINA AT CHAPEL HILL, published 2011).

The target of assay [1] is T1, properdin (purified human complement component) (human, UniProt P27918 28-469).
T1 construct: Bought purified protein; also called fP
The experiment in a line: solid-phase saturation binding ELISA, S20NS coated (10 ng/well), properdin titrated. A general note: ELISA stands for enzyme-linked immunosorbent assay.

Assay [2] addresses T1, properdin (purified human complement …). The experiment in a line: ELISA, coated CAT, properdin in solution, detected with goat α-properdin Ab.

T1 sequence (P27918 28-469 limits assumed): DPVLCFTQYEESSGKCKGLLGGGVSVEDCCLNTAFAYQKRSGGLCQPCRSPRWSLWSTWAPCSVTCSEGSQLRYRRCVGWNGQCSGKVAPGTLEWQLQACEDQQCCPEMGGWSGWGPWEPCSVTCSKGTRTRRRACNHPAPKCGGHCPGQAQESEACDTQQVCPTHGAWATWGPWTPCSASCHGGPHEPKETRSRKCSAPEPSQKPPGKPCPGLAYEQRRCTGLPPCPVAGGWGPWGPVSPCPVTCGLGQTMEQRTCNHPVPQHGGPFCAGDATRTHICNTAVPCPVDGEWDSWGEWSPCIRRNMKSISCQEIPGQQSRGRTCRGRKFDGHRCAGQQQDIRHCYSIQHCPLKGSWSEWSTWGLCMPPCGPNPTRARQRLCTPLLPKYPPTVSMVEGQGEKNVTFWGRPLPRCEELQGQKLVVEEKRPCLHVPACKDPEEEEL

B1: S20NS (Salp20 protein containing C-terminal V5-epitope and 6x-histidine tags) (other)
chain: SEDGLEQDSKVETTTQNLYERHYRNNSGLCGAQYRNSSHAEAVYNCTLSLLPPKVNETWEGIRHRINKSIPEFVRLMCNFSVVMPEDFYLVYMGSNGNSYSEEDEESTDTDKDSKTGSSAAVEVTEKLILKAEENCTAHITGWTTEAPTTLEPTETQFEAIS
modifications: multiple N- and O-linked glycans (insect cell expressed)
notes: Recombinant protein secreted from stably transfected High Five insect cells and purified; also called I. scapularis salivary protein 20
One may read the Kd as the equilibrium constant for the complex coming apart. A high value points to lower affinity. In the case of B1, the Kd in assay [1] came out at 0.669 nM.

B2: chloramphenicol acetyl-transferase protein containing C-terminal V5-epitope and 6x-histidine tags (CAT) (enzyme)
chain: MEKKITGYTTVDISQWHRKEHFEAFQSVAQCTYNQTVQLDITAFLKTVKKNKHKFYPAFIHILARLMNAHPEFRMAMKDGELVIWDSVHPCYTVFHEQTETFSSLWSEYHDDFRQFLHIYSQDVACYGENLAYFPKGFIENMFFVSANPWVSFTSFDLNVANMDNFFAPVFTMGKYYTQGDKVLMPLAIQVHHAVCDGFHVGRMLNELQQYCDEWQGGA
notes: Negative control protein expressed from the same expression vector as S20NS in High Five cells
In the case of B2, the binding result in assay [2] is given as “no binding”.
